Results: patent US20130323248A1 (published 2013)

B1: anti-DLL-4 antibody G6 (antibody, V domains shown)
VH: EVQLVESGGSLVQPGGSLRLSCAASGFTFSNGWMTWLRQAPGKGLEWVATIKPDGSDTAYVESVKGRFTISRDNAKNLLYLQMDSLRGDDTAVYFCARDLAYNAFDIWGQGTMVTVSS
VL: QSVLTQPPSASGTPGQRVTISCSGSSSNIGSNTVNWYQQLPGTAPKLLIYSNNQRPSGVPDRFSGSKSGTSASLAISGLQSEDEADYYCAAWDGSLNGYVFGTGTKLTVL
B2: anti-DLL-4 antibody C3 (antibody, V domains shown)
VH: QVQLVQSGSELKKPGASVKVSCKASGYTFTSYYMHWVRQVPGQGLEWMGIINPSGGSTSYAQKFQGRVTMTRDTSTSTVYMELSSLRSEDTAVYYCATDYYDSSGYVDFDYWGQGTLVTVSS
VL: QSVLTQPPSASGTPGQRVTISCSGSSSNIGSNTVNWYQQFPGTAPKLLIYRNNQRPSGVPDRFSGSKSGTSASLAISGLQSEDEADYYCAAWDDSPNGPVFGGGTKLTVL
B3: anti-DLL-4 antibody C10 (antibody, V domains shown)
VH: QVQLVESGAEVKKPGASVKVSCKASGYTFTSYYMHWVRQAPQGLEWMGIINPSGGSTSYAQKFQGRVTMTRDTSTNTVYMELSSLRSEDTAVYYCARDVWGGYFDYWGQGTLVTVSS
VL: QSVLTQPASVSGSPGQSITISCTGTSSDVGGYNYVSWYQQHPGKAPKLMIYDVTNRPSGVSNRFSGSKSGNTASLTISGLQAEDEADYYCSSYTSSSTVIFGGGTKLTVL

The binders below were run against T1, recombinant human DLL4 (rhDLL4) (human, UniProt Q9NR61 27-524) (assay: Biacore SPR).

In order of rising Kd:
1. B2  0.884 nM
2. B1  1.15 nM
3. B3  1.18 nM

The binders below were run against T2, human DLL-4 expressed on the surface of CHO-K1 cells (CHO-DLL-4 cells) (human, UniProt Q9NR61 27-685) (assay: flow cytometry).

In order of falling EC50:
1. B1  0.305 nM
2. B3  0.216 nM
3. B2  0.107 nM

What follows are binders tested against T2, human DLL-4 expressed on the surface of … (assay: flow cytometry blocking of soluble Notch-1 binding).

In order of rising IC50:
1. B1  0.286 nM
2. B2  0.364 nM
3. B3  0.676 nM

Biological target: T1, recombinant human DLL4 (rhDLL4)
Assay: Biacore SPR
Remark: another data set of the same source

In order of rising Ka:
1. B3  8.49e+08 M⁻¹
2. B1  8.72e+08 M⁻¹
3. B2  1.13e+09 M⁻¹
